For one assay, the target named is T1, murine OX40 (murine, UniProt P47741 20-211, limits assumed).
T1 sequence (looked up): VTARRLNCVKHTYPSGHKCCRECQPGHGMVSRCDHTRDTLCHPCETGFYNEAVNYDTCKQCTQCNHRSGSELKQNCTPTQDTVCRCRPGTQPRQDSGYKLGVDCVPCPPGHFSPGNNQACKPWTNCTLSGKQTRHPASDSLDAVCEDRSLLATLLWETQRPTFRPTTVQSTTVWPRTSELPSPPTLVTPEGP
As to the kind of experiment: ELISA.

In the next assay the target is T2, CD40 (Ancell) (UniProt P25942 21-193).
T2 construct: also called CD40-Fc (Ancell #504-820); not shown: Fc part, not described
T2 sequence (P25942 21-193 limits assumed): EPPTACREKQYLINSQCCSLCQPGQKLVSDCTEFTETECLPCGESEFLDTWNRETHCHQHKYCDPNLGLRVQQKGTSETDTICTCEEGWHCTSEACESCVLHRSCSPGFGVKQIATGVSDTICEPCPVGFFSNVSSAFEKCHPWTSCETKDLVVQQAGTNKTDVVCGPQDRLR
Kind of assay: ELISA. (ELISA stands for enzyme-linked immunosorbent assay.)

The target of assay [1] is T3, recombinant human CD137-Fc (R&D #838-4B) (human, UniProt Q07011 24-186).
T3 construct: Bought; also called Human CD137 (R&D systems); CD137 (R&D Systems); not shown: Fc part, not described
T3 sequence (Q07011 24-186 limits assumed): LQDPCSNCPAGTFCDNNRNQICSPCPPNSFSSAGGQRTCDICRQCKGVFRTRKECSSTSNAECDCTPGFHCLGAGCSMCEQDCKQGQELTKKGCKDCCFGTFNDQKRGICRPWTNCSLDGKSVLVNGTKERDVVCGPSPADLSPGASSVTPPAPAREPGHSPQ
As to the kind of experiment: ELISA.

In assay [2] the target is T4, OX40 chimera 1545: human OX40 with mouse domains 1B, 2A and 2B (aa 43-107), on FreeStyle 293-F cells (human; mouse, UniProt P47741 39-103).
T4 construct: domain: 1B, 2A and 2B; Limits derived as for 1544
T4 sequence: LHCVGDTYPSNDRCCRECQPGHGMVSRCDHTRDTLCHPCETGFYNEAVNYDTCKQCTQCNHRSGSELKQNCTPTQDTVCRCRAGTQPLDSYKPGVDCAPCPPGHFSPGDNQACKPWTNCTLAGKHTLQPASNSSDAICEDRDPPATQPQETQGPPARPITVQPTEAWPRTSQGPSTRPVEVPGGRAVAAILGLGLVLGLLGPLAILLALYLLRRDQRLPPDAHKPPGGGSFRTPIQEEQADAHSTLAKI
As to the kind of experiment: flow cytometry, 293-F transfectants. As for the experimental part: (§1) The mouse/human chimeras were transiently transfected into FreeStyle 293-F cells (Invitrogen), incubated 48 hours in FreeStyle 293 expression medium (Invitrogen) 37 C, 8% CO₂, 135 rpm. The transfected cells were incubated with human OX40 antibodies, human OX40L (hOX40L, RnD Systems), mouse OX40L (mOX40L, RnD Systems) and controls for 30 min 4° C. and then detected with a-huIgG-PE (Jackson Immunoresearch) 30 min 4° C. Cells were analyzed with FACS Verse (BD Biosciences). Binding to the different chimeric constructs were calculated as relative (mean fluorescence intensity) MFI compared to the binding of the isotype control.
On the technique in general: A flow cytometer gives signals particle by particle.

Assay [3] concerns the target T5, OX40 chimera 1546: human OX40 with mouse domains 2A, 2B and module 3 (aa 66-126), on FreeStyle 293-F cells (human; mouse, UniProt P47741 62-124).
T5 construct: domain: 2A, 2B and module 3; Limits derived as for 1544
T5 sequence: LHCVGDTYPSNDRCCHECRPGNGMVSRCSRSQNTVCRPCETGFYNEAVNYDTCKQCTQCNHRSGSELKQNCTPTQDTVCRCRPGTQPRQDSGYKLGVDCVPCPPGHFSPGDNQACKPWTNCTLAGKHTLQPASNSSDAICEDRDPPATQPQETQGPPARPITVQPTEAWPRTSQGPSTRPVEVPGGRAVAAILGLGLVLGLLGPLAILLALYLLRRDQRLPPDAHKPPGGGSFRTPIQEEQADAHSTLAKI
As to the kind of experiment: flow cytometry, 293-F transfectants. As for the experimental part:
as §1

Assay [4] addresses T6, OX40 chimera 1548: human OX40 with mouse module 3 and domains 4A and 4B (aa 108-167), on FreeStyle 293-F cells (human; mouse, UniProt P47741 104-165).
T6 construct: domain: module 3, 4A and 4B; Limits derived as for 1544
T6 sequence: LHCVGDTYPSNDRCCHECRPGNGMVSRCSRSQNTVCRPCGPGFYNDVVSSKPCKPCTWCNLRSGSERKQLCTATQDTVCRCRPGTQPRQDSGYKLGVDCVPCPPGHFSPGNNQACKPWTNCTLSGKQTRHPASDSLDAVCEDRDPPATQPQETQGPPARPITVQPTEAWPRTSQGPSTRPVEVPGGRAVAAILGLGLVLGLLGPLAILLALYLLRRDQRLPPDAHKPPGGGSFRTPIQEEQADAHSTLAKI
Kind of assay: flow cytometry, 293-F transfectants. The protocol:
as §1

Assay [5] deals with T7, construct 84: full length OX40 sequence, on FreeStyle 293-F cells (human, UniProt P43489 29-277).
T7 sequence: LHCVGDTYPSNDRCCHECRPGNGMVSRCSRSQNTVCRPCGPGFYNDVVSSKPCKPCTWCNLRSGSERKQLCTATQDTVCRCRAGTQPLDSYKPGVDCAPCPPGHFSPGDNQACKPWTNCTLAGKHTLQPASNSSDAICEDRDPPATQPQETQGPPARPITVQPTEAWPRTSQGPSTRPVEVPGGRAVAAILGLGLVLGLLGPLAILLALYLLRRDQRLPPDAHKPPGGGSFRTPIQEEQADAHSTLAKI
Kind of assay: flow cytometry, 293-F transfectants. As for the experimental part: as §1

Assay [6] addresses T8, Human OX40 (R&D systems, #3358_OX) (human, UniProt P43489 29-216).
T8 construct: Bought; Several catalogue numbers are given for it; also called human OX40 (R&D Systems, 3388-OX); OX40-Fc (R&D systems, #3358_OX); not shown: Fc part
T8 sequence: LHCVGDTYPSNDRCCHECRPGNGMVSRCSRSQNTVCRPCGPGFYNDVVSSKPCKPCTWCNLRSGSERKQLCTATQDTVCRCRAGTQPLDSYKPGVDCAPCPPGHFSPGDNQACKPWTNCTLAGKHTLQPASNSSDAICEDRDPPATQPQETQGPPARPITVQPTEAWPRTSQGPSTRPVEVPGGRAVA
As to the kind of experiment: SPR (Biacore), immobilised human OX40. The protocol: Human OX40 (R&D systems, #3358_OX) was immobilized to the Biacore™ sensor chip, CM5, using conventional amine coupling. The tested antibodies and controls (serially diluted ⅓ or ½ 100-2 nM) were analyzed for binding in HBS-P (GE, #BR-1003-68) at a flow rate of […]. The association was followed for 3 minutes and the dissociation for 20 minutes. Regeneration was performed twice using 50 mM NaOH for 60 seconds. The kinetic parameters and the affinity constants were calculated using 1:1 Langmuir model with drifting baseline. […] The kinetic parameters and the affinity constants were calculated using BIAevaluation 4.1 software.
Background: Surface plasmon resonance follows binding to a sensor surface in real time, without labels.

A word on the Kd: it is the constant that tells how readily two partners part at equilibrium. One may read the koff as a measure of how fast the partners let go of each other. Higher therefore signals a short-lived complex. What is called kon is the rate constant with which the complex forms. Low readings indicate slower complex formation, high ones faster complex formation.

B1: anti-OX40 antibody 1482/1483 (antibody, V domains shown)
VH: EVQLLESGGGLVQPGGSLRLSCAASGFTFSSYAMSWVRQAPGKGLEWVSYISYYSGYTYYADSVKGRFTISRDNSKNTLYLQMNSLRAEDTAVYYCARGYGYLDYWGQGTLVTVSS
VL: DIQMTQSPSSLSASVGDRVTITCRASQSISSYLNWYQQKPGKAPKLLIYAASSLQSGVPSRFSGSGSGTDFTLTISSLQPEDFATYYCQQYGSLLTFGQGTKLEIK
notes: Tested as IgG
B1: the binding result (with murine OX40; with CD40 (Ancell); in assay [1]) was “no binding” in each case. For the same molecule, the “relative MFI vs isotype control” value was 44.4 in assay [2], 0.9 in assay [3], 1.1 in assay [4] and 24.9 in assay [5]. Further, the Kd in assay [6] worked out at 0.753 nM. The molecule also had a koff in assay [6] of 0.000584 s⁻¹. In assay [6], this molecule came in with a kon of 776000 M⁻¹ s⁻¹.

B2: anti-OX40 antibody 1168/1135 (antibody, V domains shown)
VH: EVQLLESGGGLVQPGGSLRLSCAASGFTFSGSSMSWVRQAPGKGLEWVSSISYYGGYTYYADSVKGRFTISRDNSKNTLYLQMNSLRAEDTAVYYCARYFPHYYFDYWGQGTLVTVSS
VL: not shown
notes: Tested as IgG
Take B2: the binding result (in the assay with murine OX40; in the assay with CD40 (Ancell); in assay [1]) was “no binding” each time. In addition, the “relative MFI vs isotype control” value is 46.6 in assay [2], 0.9 in assay [3], 1 in assay [4] and 29.6 in assay [5]. The same molecule returned a Kd in assay [6] of 0.327 nM. Also, in assay [6], the koff was determined as 0.000169 s⁻¹. This molecule also gave a kon in assay [6] of 518000 M⁻¹ s⁻¹.

B3: anti-OX40 antibody 1542/1135 (antibody, V domains shown)
VH: EVQLLESGGGLVQPGGSLRLSCAASGFTFGSSSMYWVRQAPGKGLEWVSGIGYYSYSTSYADSVKGRFTISRDNSKNTLYLQMNSLRAEDTAVYYCARGYPHHYFDYWGQGTLVTVSS
VL: not shown
notes: Tested as IgG
For B3, the binding result (in the assay with murine OX40; with CD40 (Ancell); in assay [1]) was “no binding” each time. Further, the “relative MFI vs isotype control” value was 40.2 in assay [2], 0.9 in assay [3], 1.2 in assay [4] and 29.4 in assay [5]. The molecule further showed a Kd in assay [6] of 0.463 nM. In addition, the koff in assay [6] amounted to 0.0001 s⁻¹. For the same molecule, the kon in assay [6] stood at 216000 M⁻¹ s⁻¹.

B4: anti-OX40 antibody 1164/1135 (antibody, V domains shown)
VH: EVQLLESGGGLVQPGGSLRLSCAASGFTFYGSSMYWVRQAPGKGLEWVSGIYSSGGYTSYADSVKGRFTISRDNSKNTLYLQMNSLRAEDTAVYYCARGVPHGYFDYWGQGTLVTVSS
VL: not shown
notes: Tested as IgG
As to B4, the binding result (in the assay with murine OX40; with CD40 (Ancell); in assay [1]) was “no binding” in each case. The “relative MFI vs isotype control” value amounted to 37.3 in assay [2], 0.9 in assay [3], 1 in assay [4] and 27.5 in assay [5]. The molecule also gave a Kd in assay [6] of 0.308 nM. Also, in assay [6], the koff came to 7.73e-05 s⁻¹. This molecule displayed a kon in assay [6] of 251000 M⁻¹ s⁻¹.

B5: anti-OX40 antibody 1524/1525 (antibody, V domains shown)
VH: EVQLLESGGGLVQPGGSLRLSCAASGFTFGSYYMGWVRQAPGKGLEWVSSIGSYYGYTYYADSVKGRFTISRDNSKNTLYLQMNSLRAEDTAVYYCARHDYGALDYWGQGTLVTVSS
VL: DIQMTQSPSSLSASVGDRVTITCRASQSISSYLNWYQQKPGKAPKLLIYAASSLQSGVPSRFSGSGSGTDFTLTISSLQPEDFATYYCQQYGPSGLFTFGQGTKLEIK
notes: Tested as IgG
Regarding B5, the binding result (in the assay with murine OX40; in the assay with CD40 (Ancell); in assay [1]) was “no binding” in each case. Besides, the “relative MFI vs isotype control” value was 0.9 in assay [2], 0.9 in assay [3], 15.4 in assay [4] and 31.4 in assay [5]. For the same molecule, the Kd in assay [6] stood at 0.811 nM. Further, the koff in assay [6] is 0.00139 s⁻¹. The same molecule returned a kon in assay [6] of 1.71e+06 M⁻¹ s⁻¹.

B6: anti-OX40 antibody 1526/1527 (antibody, V domains shown)
VH: EVQLLESGGGLVQPGGSLRLSCAASGFTFSGYSMYWVRQAPGKGLEWVSGIGYSGYGTYYADSVKGRFTISRDNSKNTLYLQMNSLRAEDTAVYYCARYYFHDYAAYSLDYWGQGTLVTVSS
VL: DIQMTQSPSSLSASVGDRVTITCRASQSISSYLNWYQQKPGKAPKLLIYAASSLQSGVPSRFSGSGSGTDFTLTISSLQPEDFATYYCQQYGSDSLLTFGQGTKLEIK
notes: Tested as IgG
Regarding B6, the binding result (in the assay with murine OX40; with CD40 (Ancell); in assay [1]) was “no binding” each time. The “relative MFI vs isotype control” value in assay [2] amounted to 1.3; in assay [3], 0.9; in assay [4], 12.7; in assay [5] it was 21.4. Moreover, in assay [6], the Kd was 0.43 nM. This molecule also showed a koff in assay [6] of 0.000187 s⁻¹. The same molecule had a kon in assay [6] of 435000 M⁻¹ s⁻¹.

The values are drawn from US20210238298A1 (ALLIGATOR BIOSCIENCE, published 2021).
